This data set deals with mouse MIST (Mast Cell-specific Immunoreceptor Signal Transducer).

As for Lyn kinase, the “tyrosine phosphorylation of MIST” value is reported as “MIST was evidently phosphorylated by Lyn kinase among tyrosine kinases present in the mast cell”.
